Test results published in the supplement of paper PMC10567573.
± gives the standard deviation.

Assay: protein stability index of a GFP-peptide fusion (GPS, HEK-293T) (PSI 1-6); higher = more stable
[1] = treatment: DMSO, c terminus: a fixed tail appended
[2] = treatment: MLN4924 1 uM, 8 h, c terminus: a fixed tail appended
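Further: 24-mer peptide tiles fused after GFP, lentivirally expressed, FACS-sorted into six equal bins by GFP/DsRed ratio, decoded by Illumina sequencing, PSI is the read-weighted mean bin number.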

ISSGLRGCMLIELALRGRLQLEAC [GOLPH3]
protein stability index [1]: 3.22 ± 0.62
protein stability index [2]: 2.67 ± 0.21

EQALGKGCGADSKKKRPPQPPEES [PLK2]
protein stability index [1]: 5.24 ± 0.41
protein stability index [2]: 5.36 ± 0.2

YQGGPPRPPMGMRPPVMSQGGRY [ZNF207]
protein stability index (treatment: DMSO, c terminus: native): 2.56 ± 0.27
protein stability index (treatment: MLN4924 1 uM, 8 h, c terminus: native): 2.84 ± 0.3

KEEEEEDCSEEYLERQLQAEFIES [TAF7L]
protein stability index [1]: 5.36 ± 0.36
protein stability index [2]: 5.56 ± 0.12

KVSYLKQKGLGGAMVWALDLDDFA [CHIT1]
protein stability index [1]: 1.85 ± 0.49
protein stability index [2]: 2.36 ± 0.3

YKRQEESGAAASLNVDAAVQQWLQ [CHIT1]
protein stability index [1]: 4.22 ± 0.086
protein stability index [2]: 4.1 ± 0.094

NGSGDMIFEGNSEKEIPVLNELPV [CPXM2]
protein stability index [1]: 4.79 ± 0.34
protein stability index [2]: 5.01 ± 0.25

KSIDPVLMAPTCVFLASKVEEFGV [CCNC]
protein stability index [1]: 1.92 ± 0.11
protein stability index [2]: 2.05 ± 0.34

RSPDASPSRAPPSTQEPQSPREGE [GNAS]
protein stability index [1]: 5.36 ± 0.12
protein stability index [2]: 5.42 ± 0.078

LPRKDYESLDYDRCINDPYLEVLE [CLCN6]
protein stability index [1]: 3.4 ± 0.24
protein stability index [2]: 3.58 ± 0.18

MNEVKESLRSIEQKYKLFQQQQLT [SPACA9]
protein stability index [1]: 3.33 ± 0.13
protein stability index [2]: 3.2 ± 0.22

KEVFASRISNPSDDNSCEDLEEER [PCMTD2]
protein stability index [1]: 5.55 ± 0.33
protein stability index [2]: 5.41 ± 0.31

MQVLVTAISPGRFPEALDELPLPP [ANKRD9]
protein stability index [1]: 2.17 ± 0.48
protein stability index [2]: 2.23 ± 0.19

FWNQGLTWKVLFCSMSATFTLNFF [CLCN6]
protein stability index [1]: 3.31 ± 0.5
protein stability index [2]: 3.17 ± 0.21

SQKVPLRRMCFVDPVRQCAECALV [ZFYVE21]
protein stability index [1]: 2.21 ± 0.2
protein stability index [2]: 2.29 ± 0.23

VLPPRQPSALVPSVTEYRLDGHTI [MYBL2]
protein stability index [1]: 3.35 ± 0.35
protein stability index [2]: 3.41 ± 0.24

LKLLNVLEEYITDEQKEEEEEEGE [FAM9B]
protein stability index [1]: 4.94 ± 0.18
protein stability index [2]: 4.93 ± 0.29

CDWLRATGFPQYAQLYEDFLFPID [DLC1]
protein stability index [1]: 2.31 ± 0.45
protein stability index [2]: 2.26 ± 0.24

IQGADTIRCVYILDPWFAGSSNVG [CRY1]
protein stability index [1]: 2.81 ± 0.56
protein stability index [2]: 2.6 ± 0.54

QLGYLLFGTQVENFSTFIKCIFTQ [PKD2L1]
protein stability index [1]: 2.83 ± 0.41
protein stability index [2]: 3.27 ± 0.55

VFSFDLHEPLSKERVEAFSDGVYA [TMEM175]
protein stability index [1]: 3.1 ± 0.24
protein stability index [2]: 3.24 ± 0.28

SVSNSTQTSSSSSQSETSSAVSTP [DLC1]
protein stability index [1]: 5.5 ± 0.1
protein stability index [2]: 5.43 ± 0.23

VTHTLTMRQRISRVEESALRALRE [PPEF2]
protein stability index [1]: 3.5 ± 0.38
protein stability index [2]: 3.86 ± 0.012

LDDEDDTSIGMPSLMYRSPPGAEE [RETREG3]
protein stability index [1]: 5.44 ± 0.23
protein stability index [2]: 5.39 ± 0.26

VWMDDFKSHVYMAWNIPMSNPGVD [GALNT9]
protein stability index [1]: 2.21 ± 0.3
protein stability index [2]: 2 ± 0.2

ETVKLFICELVMALDYLQNQRIIH [STK32A]
protein stability index [1]: 3.39 ± 0.55
protein stability index [2]: 3.08 ± 0.27

CTRFTDEYQLYEDIGKGAFSVVRR [CAMK2B]
protein stability index [1]: 2.84 ± 0.35
protein stability index [2]: 2.85 ± 0.54

HSAVARISRAQYNALTLTFQRAMH [STX11]
protein stability index [1]: 2.08 ± 0.31
protein stability index [2]: 2.14 ± 0.19

QLMEKLREKQLSHSLRAVSTDPPH [BEX1]
protein stability index [1]: 3.35 ± 0.37
protein stability index [2]: 3.27 ± 0.34

LQKLSALLMTADILAETGIRKTVK [ELOA2]
protein stability index [1]: 2.48 ± 0.64
protein stability index [2]: 2.34 ± 0.45

MGGSGSRLSKELLAEYQDLTFLTK [CIB1]
protein stability index [1]: 3.175 ± 0.031
protein stability index [2]: 3.27 ± 0.28

DALPGQSKRLAVPCKLEKMRILAH [TLE6]
protein stability index [1]: 2.39 ± 0.18
protein stability index [2]: 2.4 ± 0.24

VLLEEPLPLETARESPSFKLEPME [ZNF263]
protein stability index [1]: 4.02 ± 0.24
protein stability index [2]: 4.284 ± 0.038

EASAEGPRAVFVLLEERRPADSAQ [TFE3]
protein stability index [1]: 3.93 ± 0.28
protein stability index [2]: 3.95 ± 0.44

DNMYRLAHFSPFLYYQSQELPNGS [PDZK1]
protein stability index [1]: 2.12 ± 0.22
protein stability index [2]: 2.33 ± 0.23

EGFQRCDVARQLGKNNEFSRLVAG [PSD2]
protein stability index [1]: 3.22 ± 0.25
protein stability index [2]: 3.58 ± 0.23
